{
  "source": "paper doi:10.1101/686782",
  "assay_in_all_cases": "cryo-EM structure",
  "key": {"[1]": {"biological_target": "V. mimicus FliPQR complex (FliP5Q4R1) (Vibrio mimicus)"}, "[2]": {"biological_target": "V. mimicus FliP (Vibrio mimicus)"}, "[3]": {"biological_target": "V. mimicus FliQ (Vibrio mimicus)"}},
  "data": [
    {"substance": "V. mimicus FlhB (natural protein)", "values": [
      {"measurement": "stoichiometry N", "setting": "[1]", "value": 1}
    ]},
    {"substance": "V. mimicus FliP (natural protein)", "values": [
      {"measurement": "stoichiometry N", "setting": "[2]", "value": 5}
    ]},
    {"substance": "V. mimicus FliQ (natural protein)", "values": [
      {"measurement": "stoichiometry N", "setting": "[3]", "value": 4}
    ]}
  ]
}
